Results published in patent publication US7829528B2, “Compositions and methods for treating STAT-6 associated diseases or conditions” (The Rockefeller University, priority 2004, dated 2010).
Where a SMILES comes first, the peptide text is derived from it. Where no end group is shown, it is not given here. [ ]: non-standard residue; d: D form. pY = N[C@@H](Cc1ccc(OP(=O)(O)O)cc1)C(=O)O

Legend:
[1] = Stability of intracellular STAT-6-IP in splenocytes (western blot, anti-phosphoSTAT-6 antibody); format: cell-based, murine; details: mouse, murine splenocytes (intracellular peptide after loading); 4 hours loading at 100 μM, washed, trypsinized
Procedure: (§1) To determine the half-life of the intracellular PTD4 peptide in the absence of further uptake, splenocytes were incubated with the FITC-PTD4 peptide for 4 hours, washed and trypsinized, and placed back into complete medium after which intracellular localization of the peptide was monitored over time by flow cytometry. […] To monitor stability of the murine-specific PTD4-STAT-6 peptide (STAT-6-IP; Tyr-Ala-Arg-Ala-Ala-Ala-Arg-Gln-Ala-Arg-Ala-Gly-Arg-Gly-Tyr*-Val-Ser-Thr-Thr; SEQ ID NO:7) in murine splenocytes, cells were incubated with the STAT-6-IP for four hours, after which they were washed and trypsinized. The presence of intracellular STAT-6-IP was monitored by western blot analysis of cell lysates harvested at different time points and resolved by SDS-PAGE. The STAT-6-IP was visualized using anti-phosphoSTAT-6 antibody and data normalized to 100% (Table 2).
(§2) To monitor stability of the STAT-6-IP in murine splenocytes, cells in DMEM/10% FBS were incubated with the STAT-6-IP (100 μM) for four hours, after which they were washed twice with PBS and trypsinized. Splenocytes were then incubated with soybean trypsin inhibitor (0.5 mg/mL in 10 mM sodium tetraborate) for 5 minutes. The cells were washed again once in PBS and subsequently placed back into complete medium. At different time points, cells were harvested and lysed in tricine sample buffer (100 mM Tris-HCl, pH 6.8, 24% glycerol, 8% SDS, 200 mM DTT). Lysates were clarified and equal concentrations (20 μg/lane) resolved by SDS-PAGE on 18% tris-tricine gels, after which proteins were transferred to PVDF membrane. For western immunoblot analysis, membranes were blocked for one hour in TBST (10 mM Tris-Cl pH 7.4, 2.5 mM EDTA, 150 mM NaCl, 0.1% TWEEN™-20) containing 0.25% gelatin (bloom 275) at room temperature. Blots were incubated with anti-phosphoSTAT-6 antibodies overnight at 4° C. followed by horseradish peroxidase-conjugated bovine anti-rabbit secondary antibody for one hour. Immunoreactive bands were detected by enhanced chemiluminescence, ECLT™ (Amersham Life Sciences, San Francisco, Calif.), visualized and quantified on a FLUORCHEM™ 8000 Imaging System using ALPHAEASE™ software (Alpha Innotech, San Leandro, Calif.).

murine splenocytes [2] = experiment: as above; format: cell-based; details: for Percent Maximum (±STD), intracellular STAT-6-IP: normalized to 100%
Procedure: as §1, §2

murine splenocytes [3] = experiment: Uptake of FITC-conjugated PTD4 peptide by splenocytes (flow cytometry); format: cell-based; details: for Percent Maximum (±SEM), peptide uptake: FITC-PTD4 100 μM, normalized to 100%
Procedure: The ability of the PTD4 protein transduction domain to enter cells was confirmed by incubating murine splenocytes with FITC-conjugated PTD4 peptide (FITC-PTD4). Splenocytes were incubated with FITC-PTD4 for various times (30 minutes to 24 hours), subsequently washed and incubated with trypsin to remove surface bound peptide, and analyzed by flow cytometry. Data was normalized to 100%. Half-maximal peptide uptake occurred at 1 hour and plateaued after 4-6 hours (Table 1).
To monitor peptide uptake, splenocytes in Dulbecco's Modified Eagle Medium (DMEM)/10% fetal bovine serum (FBS) were incubated continuously with FITC-conjugated PTD4 peptide (100 μM) for 30 minutes to 24 hours. At each time point, surface bound peptide was removed by washing cells twice with phosphate-buffered saline (PBS) and then incubating cells with trypsin for five minutes. Ten thousand cells were subsequently analyzed by flow cytometry. To monitor the half-life of intracellular peptide (in the absence of uptake), splenocytes in DMEM/10% FBS were incubated with FITC-conjugated PTD4 peptide (100 μM) for four hours, after which they were washed twice with PBS and incubated with trypsin for five minutes. Splenocytes were returned to DMEM/10% FBS and intracellular localization of peptide monitored over time by flow cytometry.

murine splenocytes [4] = format: cell-based; details: mouse
Procedure: as §1
To monitor peptide uptake, splenocytes in Dulbecco's Modified Eagle Medium (DMEM)/10% fetal bovine serum (FBS) were incubated continuously with FITC-conjugated PTD4 peptide (100 μM) for 30 minutes to 24 hours. […] Ten thousand cells were subsequently analyzed by flow cytometry. […] Splenocytes were returned to DMEM/10% FBS and intracellular localization of peptide monitored over time by flow cytometry.

Compound	half-life at 100 μM [1]	Percent Maximum (±STD), intracellular STAT-6-IP (murine splenocytes [2]; 0.5 hours after 4 hours loading at 100 μM)	Percent Maximum (±STD), intracellular STAT-6-IP (murine splenocytes [2]; 1.0 hours after 4 hours loading at 100 μM)	Percent Maximum (±STD), intracellular STAT-6-IP (murine splenocytes [2]; 4.0 hours after 4 hours loading at 100 μM)	Time peptide remained in the cells (murine splenocytes [2]; 4 hours loading at 100 μM, washed, trypsinized)	Percent Maximum (±STD), intracellular STAT-6-IP (murine splenocytes [2]; 6.0 hours after 4 hours loading at 100 μM)	Percent Maximum (±STD), intracellular STAT-6-IP (murine splenocytes [2]; 8.0 hours after 4 hours loading at 100 μM)	Percent Maximum (±STD), intracellular STAT-6-IP (murine splenocytes [2]; 24.0 hours after 4 hours loading at 100 μM)	Percent Maximum (±SEM), peptide uptake (murine splenocytes [3]; 0 hours)	Percent Maximum (±SEM), peptide uptake (murine splenocytes [3]; 0.5 hours)	Percent Maximum (±SEM), peptide uptake (murine splenocytes [3]; 1.0 hours)	Percent Maximum (±SEM), peptide uptake (murine splenocytes [3]; 2.0 hours)	Percent Maximum (±SEM), peptide uptake (murine splenocytes [3]; 4.0 hours)	Percent Maximum (±SEM), peptide uptake (murine splenocytes [3]; 6.0 hours)	Percent Maximum (±SEM), peptide uptake (murine splenocytes [3]; 24.0 hours)	Time after which peptide uptake plateaued (murine splenocytes [3]; continuous incubation, 100 μM)	Time of half-maximal peptide uptake (murine splenocytes [3]; continuous incubation, 100 μM)	Half-life of intracellular peptide (murine splenocytes [4])
CC(C)[C@H](NC(=O)[C@H](Cc1ccc(OP(=O)(O)O)cc1)NC(=O)CNC(=O)[C@H](CCCNC(=N)N)NC(=O)CNC(=O)[C@H](C)NC(=O)[C@H](CCCNC(=N)N)NC(=O)[C@H](C)NC(=O)[C@H](CCC(N)=O)NC(=O)[C@H](CCCNC(=N)N)NC(=O)[C@H](C)NC(=O)[C@H](C)NC(=O)[C@H](C)NC(=O)[C@H](CCCNC(=N)N)NC(=O)[C@H](C)NC(=O)[C@@H](N)Cc1ccc(O)cc1)C(=O)N[C@@H](CO)C(=O)N[C@H](C(=O)N[C@H](C(=O)O)[C@@H](C)O)[C@@H](C)O [STAT-6-IP, Tyr-Ala-Arg-Ala-Ala-Ala-Arg-Gln-Ala-Arg-Ala-Gly-Arg-Gly-Tyr*-Val-Ser-Thr-Thr] (H-YARAAARQARAGRG[pY]VSTT-OH; N-terminus and C-terminus assumed)	~8 h	100.00 ± 0.00%	93.69 ± 17.14%	68.33 ± 17.42%	up to 24 hours	66.56 ± 15.04%	46.47 ± 15.98%	38.50 ± 51.74%	–	–	–	–	–	–	–	–	–	–
FITC-PTD4: FITC-conjugated PTD4 protein transduction domain peptide (PTD4: Tyr-Ala-Arg-Ala-Ala-Ala-Arg-Gln-Ala-Arg-Ala; SEQ ID NO:6) (YARAAARQARA; not fully specified (N-terminus); printed as Tyr-Ala-Arg-Ala-Ala-Ala-Arg-Gln-Ala-Arg-Ala; also: FITC label, position not given here)	–	–	–	–	–	–	–	–	4.16 ± 0.53%	31.2 ± 4.35%	46.57 ± 6.63%	69.70 ± 8.60%	72.86 ± 8.51%	76.71 ± 7.58%	78.49 ± 14.11%	4 to 6 h	1 h	approximately four
